Data as given in patent publication US20260317443 (published 2026).

Target: human VWF (human)
Assay: ELISA

Chain of human VWF (human) (P04275 whole entry): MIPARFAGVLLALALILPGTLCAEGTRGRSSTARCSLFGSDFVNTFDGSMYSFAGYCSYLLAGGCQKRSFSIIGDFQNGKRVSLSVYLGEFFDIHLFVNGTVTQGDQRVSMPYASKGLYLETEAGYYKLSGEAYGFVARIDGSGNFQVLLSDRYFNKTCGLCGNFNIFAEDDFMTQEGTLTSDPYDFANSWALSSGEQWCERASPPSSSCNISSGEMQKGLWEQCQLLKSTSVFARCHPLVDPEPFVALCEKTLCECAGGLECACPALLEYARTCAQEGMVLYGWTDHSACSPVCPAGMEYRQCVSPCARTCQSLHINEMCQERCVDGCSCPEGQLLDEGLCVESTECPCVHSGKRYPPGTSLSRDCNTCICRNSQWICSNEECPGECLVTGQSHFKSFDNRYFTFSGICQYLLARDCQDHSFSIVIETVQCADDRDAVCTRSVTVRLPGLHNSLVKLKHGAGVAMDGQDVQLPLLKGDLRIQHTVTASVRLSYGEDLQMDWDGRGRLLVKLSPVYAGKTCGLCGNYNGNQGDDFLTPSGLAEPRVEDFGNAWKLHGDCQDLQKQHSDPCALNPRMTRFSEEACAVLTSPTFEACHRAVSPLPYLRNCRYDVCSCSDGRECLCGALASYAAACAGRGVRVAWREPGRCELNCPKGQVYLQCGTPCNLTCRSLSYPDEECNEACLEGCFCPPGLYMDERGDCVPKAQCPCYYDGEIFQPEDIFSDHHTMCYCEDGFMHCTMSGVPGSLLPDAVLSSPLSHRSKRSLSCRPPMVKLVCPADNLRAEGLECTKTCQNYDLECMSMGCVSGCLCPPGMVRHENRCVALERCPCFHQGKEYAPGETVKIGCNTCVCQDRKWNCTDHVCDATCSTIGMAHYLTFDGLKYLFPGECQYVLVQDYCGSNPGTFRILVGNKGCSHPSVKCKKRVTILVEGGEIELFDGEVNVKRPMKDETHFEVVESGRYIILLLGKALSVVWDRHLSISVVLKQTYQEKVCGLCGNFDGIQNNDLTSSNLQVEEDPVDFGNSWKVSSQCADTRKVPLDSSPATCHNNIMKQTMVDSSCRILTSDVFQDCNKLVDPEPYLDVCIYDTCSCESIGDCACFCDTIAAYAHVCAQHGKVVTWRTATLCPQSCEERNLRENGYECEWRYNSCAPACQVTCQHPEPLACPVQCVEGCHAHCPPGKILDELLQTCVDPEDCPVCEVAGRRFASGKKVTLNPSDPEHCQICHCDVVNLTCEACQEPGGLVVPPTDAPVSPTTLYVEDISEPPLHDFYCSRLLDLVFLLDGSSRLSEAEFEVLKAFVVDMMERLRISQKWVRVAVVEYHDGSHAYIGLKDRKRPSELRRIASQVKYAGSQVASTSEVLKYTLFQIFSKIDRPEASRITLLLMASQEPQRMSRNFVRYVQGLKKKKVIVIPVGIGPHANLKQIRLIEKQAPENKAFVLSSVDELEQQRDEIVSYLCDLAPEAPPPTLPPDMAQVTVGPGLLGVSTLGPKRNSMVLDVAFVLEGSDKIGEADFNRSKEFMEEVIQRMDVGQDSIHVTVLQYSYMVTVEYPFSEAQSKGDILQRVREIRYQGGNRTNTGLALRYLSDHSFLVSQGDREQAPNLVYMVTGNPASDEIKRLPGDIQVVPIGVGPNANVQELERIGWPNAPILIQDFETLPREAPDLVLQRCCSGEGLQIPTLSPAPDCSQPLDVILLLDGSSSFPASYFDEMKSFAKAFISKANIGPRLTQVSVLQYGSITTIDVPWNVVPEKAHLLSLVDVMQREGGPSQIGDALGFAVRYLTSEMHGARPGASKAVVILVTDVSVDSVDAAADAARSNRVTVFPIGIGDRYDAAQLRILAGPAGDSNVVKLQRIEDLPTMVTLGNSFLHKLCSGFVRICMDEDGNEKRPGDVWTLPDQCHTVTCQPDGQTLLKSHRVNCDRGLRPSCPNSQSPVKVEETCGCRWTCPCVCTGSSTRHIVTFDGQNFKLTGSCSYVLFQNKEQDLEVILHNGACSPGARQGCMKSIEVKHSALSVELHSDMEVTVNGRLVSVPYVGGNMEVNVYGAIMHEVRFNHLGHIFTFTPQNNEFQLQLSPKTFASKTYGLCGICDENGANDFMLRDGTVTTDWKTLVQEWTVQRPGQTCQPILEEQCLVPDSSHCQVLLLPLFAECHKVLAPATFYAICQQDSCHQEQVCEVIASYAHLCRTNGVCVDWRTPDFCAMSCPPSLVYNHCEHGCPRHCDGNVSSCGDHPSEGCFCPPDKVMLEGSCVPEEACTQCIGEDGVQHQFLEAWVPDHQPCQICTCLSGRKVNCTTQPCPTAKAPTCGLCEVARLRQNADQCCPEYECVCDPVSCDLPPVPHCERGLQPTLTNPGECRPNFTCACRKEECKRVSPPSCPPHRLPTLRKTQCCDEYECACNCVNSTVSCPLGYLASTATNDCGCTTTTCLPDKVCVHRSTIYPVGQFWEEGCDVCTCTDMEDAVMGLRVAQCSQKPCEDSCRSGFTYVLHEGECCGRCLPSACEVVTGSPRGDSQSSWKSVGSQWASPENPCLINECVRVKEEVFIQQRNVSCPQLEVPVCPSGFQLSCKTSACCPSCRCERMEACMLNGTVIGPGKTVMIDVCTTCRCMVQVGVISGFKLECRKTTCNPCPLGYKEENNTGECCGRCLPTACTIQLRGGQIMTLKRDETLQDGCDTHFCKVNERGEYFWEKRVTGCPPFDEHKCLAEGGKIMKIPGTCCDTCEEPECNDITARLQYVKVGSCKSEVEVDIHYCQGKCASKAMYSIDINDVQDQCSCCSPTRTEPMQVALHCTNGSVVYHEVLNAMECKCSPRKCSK

Binder	EC50 [µg/mL]
25B05_H1-L3 (antibody, V domains shown) VH: QVQLVQSGAEVKKPGASVKVSCKASGYTFTDYFMNWVRQAPGQRLEWMGVINPHNGGTSYSQKFQGRVTITRDTSASTAYMELSSLRSEDTAVYYCARRPLGSDYWGQGTTVTVSS VL: DIQMTQSPSSVSASVGDRVTITCKASQNVGTAVAWYQQKPGKAPKLLIYSASSRYTEVPDRFSGSGSGTDFTLTISSLQPEDFATYYCQQYSSYPLTFGQGTKLEIK	0.0335
25B05_H2-L1 (antibody, V domains shown) VH: QVQLVQSGAEVKKPGASVKVSCKASGYTFTDYFMNWVRQAPGQRLEWMGVINPHNGGTSYSQKFQGRVTITVDKSSSTAYMELSSLRSEDTAVYYCARRPLGSDYWGQGTTVTVSS VL: DIQMTQSPSSVSASVGDRVTITCKASQNVGTAVAWYQQKPGKAPKLLIYSASSRYTGVPSRFSGSGSGTDFTLTISSLQPEDFATYYCQQYSSYPLTFGQGTKLEIK	0.0612
25B05_H3-L3 (antibody, V domains shown) VH: EVQLVQSGAEVKKPGASVKVSCKASGYTFTDYFMNWVRQAPGQRLEWMGVINPHNGGTSYSQKFQGRVTITVDKSSSTAYMELSSLRSEDTAVYYCARRPLGSDYWGQGTTVTVSS VL: DIQMTQSPSSVSASVGDRVTITCKASQNVGTAVAWYQQKPGKAPKLLIYSASSRYTEVPDRFSGSGSGTDFTLTISSLQPEDFATYYCQQYSSYPLTFGQGTKLEIK	0.0434
25B05_H1-L4 (antibody, V domains shown) VH: QVQLVQSGAEVKKPGASVKVSCKASGYTFTDYFMNWVRQAPGQRLEWMGVINPHNGGTSYSQKFQGRVTITRDTSASTAYMELSSLRSEDTAVYYCARRPLGSDYWGQGTTVTVSS VL: DIVMTQSPSSVSASVGDRVTITCKASQNVGTAVAWYQQKPGKAPKLLIYSASSRYTEVPDRFSGSGSGTDFTLTISSLQPEDFATYYCQQYSSYPLTFGQGTKLEIK	0.0344
25B05_H4-L4 (antibody, V domains shown) VH: EVQLVQSGAEVKKPGASVKVSCKASGYTFTDYFMNWVRQAPGQRLEWMGVINPHNGGTSYSQKFQGRVTLTVDKSSSTAYMELSSLRSEDTAVYYCARRPLGSDYWGQGTTVTVSS VL: DIVMTQSPSSVSASVGDRVTITCKASQNVGTAVAWYQQKPGKAPKLLIYSASSRYTEVPDRFSGSGSGTDFTLTISSLQPEDFATYYCQQYSSYPLTFGQGTKLEIK	0.0264
25B05_H4-L1 (antibody, V domains shown) VH: EVQLVQSGAEVKKPGASVKVSCKASGYTFTDYFMNWVRQAPGQRLEWMGVINPHNGGTSYSQKFQGRVTLTVDKSSSTAYMELSSLRSEDTAVYYCARRPLGSDYWGQGTTVTVSS VL: DIQMTQSPSSVSASVGDRVTITCKASQNVGTAVAWYQQKPGKAPKLLIYSASSRYTGVPSRFSGSGSGTDFTLTISSLQPEDFATYYCQQYSSYPLTFGQGTKLEIK	0.0385
25B05_H3-L1 (antibody, V domains shown) VH: EVQLVQSGAEVKKPGASVKVSCKASGYTFTDYFMNWVRQAPGQRLEWMGVINPHNGGTSYSQKFQGRVTITVDKSSSTAYMELSSLRSEDTAVYYCARRPLGSDYWGQGTTVTVSS VL: DIQMTQSPSSVSASVGDRVTITCKASQNVGTAVAWYQQKPGKAPKLLIYSASSRYTGVPSRFSGSGSGTDFTLTISSLQPEDFATYYCQQYSSYPLTFGQGTKLEIK	0.0594
25B05_H1-L2 (antibody, V domains shown) VH: QVQLVQSGAEVKKPGASVKVSCKASGYTFTDYFMNWVRQAPGQRLEWMGVINPHNGGTSYSQKFQGRVTITRDTSASTAYMELSSLRSEDTAVYYCARRPLGSDYWGQGTTVTVSS VL: DIVMTQSPSSVSASVGDRVTITCKASQNVGTAVAWYQQKPGKAPKLLIYSASSRYTGVPSRFSGSGSGTDFTLTISSLQPEDFATYYCQQYSSYPLTFGQGTKLEIK	0.0334
25B05_H2-L4 (antibody, V domains shown) VH: QVQLVQSGAEVKKPGASVKVSCKASGYTFTDYFMNWVRQAPGQRLEWMGVINPHNGGTSYSQKFQGRVTITVDKSSSTAYMELSSLRSEDTAVYYCARRPLGSDYWGQGTTVTVSS VL: DIVMTQSPSSVSASVGDRVTITCKASQNVGTAVAWYQQKPGKAPKLLIYSASSRYTEVPDRFSGSGSGTDFTLTISSLQPEDFATYYCQQYSSYPLTFGQGTKLEIK	0.0312
25B05_H1-L1 (antibody, V domains shown) VH: QVQLVQSGAEVKKPGASVKVSCKASGYTFTDYFMNWVRQAPGQRLEWMGVINPHNGGTSYSQKFQGRVTITRDTSASTAYMELSSLRSEDTAVYYCARRPLGSDYWGQGTTVTVSS VL: DIQMTQSPSSVSASVGDRVTITCKASQNVGTAVAWYQQKPGKAPKLLIYSASSRYTGVPSRFSGSGSGTDFTLTISSLQPEDFATYYCQQYSSYPLTFGQGTKLEIK	0.0312

The remaining lines, values ahead:

EC50 [µg/mL]	Binder
0.0381	33D03_H4-L1 (antibody, V domains shown) VH: QVQLVQSGAEVKKPGASVKVSCKASGYTFTDYYLNWVRQAPGQRLEWMGIINPYNGGTNYNQRFKGRVTITVDKSSSTAYMELSSLRSEDTAVYYCASEGLRTWFTYWGQGTLVTVSS VL: DIVMTQSPDSLAVSLGERATINCKSSQSLSNSGNQKIYLAWYQQKPGQPPKLLIYGASSRESGVPDRFSGSGSGTDFTLTISSLQAEDVAVYYCQNDHSHPFTFGQGTKLEIK
0.0294	33D03_H5-L2 (antibody, V domains shown) VH: EVQLVQSGAEVKKPGASVKVSCKASGYTFTDYYLNWVRQAPGQRLEWMGIINPYNGGTNYNQRFKGRVTLTVDKSSSTAYMELSSLRSEDTAVYYCASEGLRTWFTYWGQGTLVTVSS VL: DIVMTQSPDSLAVSLGERATISCKSSQSLSNSGNQKIYLAWYQQKPGQPPKLLIYGASSRESGVPDRFSGSGSGTDFTLTISSLQAEDVAVYYCQNDHSHPFTFGQGTKLEIK
0.0437	33D03_H1-L1 (antibody, V domains shown) VH: QVQLVQSGAEVKKPGASVKVSCKASGYTFTDYYLNWVRQAPGQRLEWMGIINPYNGGTNYSQKFQGRVTITRDTSASTAYMELSSLRSEDTAVYYCASEGLRTWFTYWGQGTLVTVSS VL: DIVMTQSPDSLAVSLGERATINCKSSQSLSNSGNQKIYLAWYQQKPGQPPKLLIYGASSRESGVPDRFSGSGSGTDFTLTISSLQAEDVAVYYCQNDHSHPFTFGQGTKLEIK
0.0447	33D03_H3-L1 (antibody, V domains shown) VH: QVQLVQSGAEVKKPGASVKVSCKASGYTFTDYYLNWVRQAPGQRLEWMGIINPYNGGTNYSQKFQGRVTITVDKSSSTAYMELSSLRSEDTAVYYCASEGLRTWFTYWGQGTLVTVSS VL: DIVMTQSPDSLAVSLGERATINCKSSQSLSNSGNQKIYLAWYQQKPGQPPKLLIYGASSRESGVPDRFSGSGSGTDFTLTISSLQAEDVAVYYCQNDHSHPFTFGQGTKLEIK
0.0453	33D03_H1-L2 (antibody, V domains shown) VH: QVQLVQSGAEVKKPGASVKVSCKASGYTFTDYYLNWVRQAPGQRLEWMGIINPYNGGTNYSQKFQGRVTITRDTSASTAYMELSSLRSEDTAVYYCASEGLRTWFTYWGQGTLVTVSS VL: DIVMTQSPDSLAVSLGERATISCKSSQSLSNSGNQKIYLAWYQQKPGQPPKLLIYGASSRESGVPDRFSGSGSGTDFTLTISSLQAEDVAVYYCQNDHSHPFTFGQGTKLEIK
0.054	33D03_H1-L4 (antibody, V domains shown) VH: QVQLVQSGAEVKKPGASVKVSCKASGYTFTDYYLNWVRQAPGQRLEWMGIINPYNGGTNYSQKFQGRVTITRDTSASTAYMELSSLRSEDTAVYYCASEGLRTWFTYWGQGTLVTVSS VL: DIVMTQSPDSLAVSLGERATISCKSSQSLSNSGNQKIYLAWYQQKPGQPPKLLIYGASSRESGVPDRFSGSGSEIDFTLTISSLQAEDVAVYYCQNDHSHPFTFGQGTKLEIK
0.0335	33D03_H5-L3 (antibody, V domains shown) VH: EVQLVQSGAEVKKPGASVKVSCKASGYTFTDYYLNWVRQAPGQRLEWMGIINPYNGGTNYNQRFKGRVTLTVDKSSSTAYMELSSLRSEDTAVYYCASEGLRTWFTYWGQGTLVTVSS VL: DIVMTQSPDSLAVSLGERATINCKSSQSLSNSGNQKIYLAWYQQKPGQPPKLLIYGASSRESGVPDRFSGSGSEIDFTLTISSLQAEDVAVYYCQNDHSHPFTFGQGTKLEIK
0.0365	33D03_H5-L4 (antibody, V domains shown) VH: EVQLVQSGAEVKKPGASVKVSCKASGYTFTDYYLNWVRQAPGQRLEWMGIINPYNGGTNYNQRFKGRVTLTVDKSSSTAYMELSSLRSEDTAVYYCASEGLRTWFTYWGQGTLVTVSS VL: DIVMTQSPDSLAVSLGERATISCKSSQSLSNSGNQKIYLAWYQQKPGQPPKLLIYGASSRESGVPDRFSGSGSEIDFTLTISSLQAEDVAVYYCQNDHSHPFTFGQGTKLEIK
0.0434	33D03_H3-L4 (antibody, V domains shown) VH: QVQLVQSGAEVKKPGASVKVSCKASGYTFTDYYLNWVRQAPGQRLEWMGIINPYNGGTNYSQKFQGRVTITVDKSSSTAYMELSSLRSEDTAVYYCASEGLRTWFTYWGQGTLVTVSS VL: DIVMTQSPDSLAVSLGERATISCKSSQSLSNSGNQKIYLAWYQQKPGQPPKLLIYGASSRESGVPDRFSGSGSEIDFTLTISSLQAEDVAVYYCQNDHSHPFTFGQGTKLEIK
0.0297	33D03_H5-L1 (antibody, V domains shown) VH: EVQLVQSGAEVKKPGASVKVSCKASGYTFTDYYLNWVRQAPGQRLEWMGIINPYNGGTNYNQRFKGRVTLTVDKSSSTAYMELSSLRSEDTAVYYCASEGLRTWFTYWGQGTLVTVSS VL: DIVMTQSPDSLAVSLGERATINCKSSQSLSNSGNQKIYLAWYQQKPGQPPKLLIYGASSRESGVPDRFSGSGSGTDFTLTISSLQAEDVAVYYCQNDHSHPFTFGQGTKLEIK
0.0457	33D03_H3-L2 (antibody, V domains shown) VH: QVQLVQSGAEVKKPGASVKVSCKASGYTFTDYYLNWVRQAPGQRLEWMGIINPYNGGTNYSQKFQGRVTITVDKSSSTAYMELSSLRSEDTAVYYCASEGLRTWFTYWGQGTLVTVSS VL: DIVMTQSPDSLAVSLGERATISCKSSQSLSNSGNQKIYLAWYQQKPGQPPKLLIYGASSRESGVPDRFSGSGSGTDFTLTISSLQAEDVAVYYCQNDHSHPFTFGQGTKLEIK
